Test results as given in paper PMC5387736, “SnoN Stabilizes the SMAD3/SMAD4 Protein Complex” (Scientific Reports, 2017).

B2: His-tagged MH2 domain of SMAD4 (I314-Q549) (domain or fragment, UniProt Q13485 314-549, looked up)
chain: ISNHPAPEYWCSIAYFEMDVQVGETFKVPSSCPIVTVDGYVDPSGGDRFCLGQLSNVHRTEAIERARLHIGKGVQLECKGEGDVWVRCLSDHAVFVQSYYLDREAGRAPGDAVHKIYPSAYIKVFDLRQCHRQMQQQAATAQAAAAAQAAAVAGNIPGPGSVGGIAPAISLSAAAGIGVDDLRRLCILRMSFVKGWGPDYPRQSIKETPCWIEIHLHRALQLLDEVLHTMPIADPQ
notes: SMAD4, MH2 domain, residues I314-Q549; Cloned in pNIC28Bsa4; also called ^HisSMAD4; not shown: His6, N-terminal, kept

Experiments:
SnoN (M1-S356), untagged = target: T1, SnoN (M1-S356), untagged (UniProt P12757-1 1-356); assay: fluorescence labelling of cysteines (IRDye 800CW maleimide) and gel scanning; Ni-NTA eluate of the isolated SnoN-SMAD3-SMAD4 complex, boiled in 1% SDS, labelled, SDS-PAGE, near-infrared imaging; three measurements
T1 construct: Cloned in pNIC28Bsa4; the asterisk marks the TEV cut, so SM probably remains at the N-terminus after cleavage; also called truncated SnoN (M1-S356, 38.6 kDa); not shown: His6, N-terminal, cleaved
T1 sequence (looked up): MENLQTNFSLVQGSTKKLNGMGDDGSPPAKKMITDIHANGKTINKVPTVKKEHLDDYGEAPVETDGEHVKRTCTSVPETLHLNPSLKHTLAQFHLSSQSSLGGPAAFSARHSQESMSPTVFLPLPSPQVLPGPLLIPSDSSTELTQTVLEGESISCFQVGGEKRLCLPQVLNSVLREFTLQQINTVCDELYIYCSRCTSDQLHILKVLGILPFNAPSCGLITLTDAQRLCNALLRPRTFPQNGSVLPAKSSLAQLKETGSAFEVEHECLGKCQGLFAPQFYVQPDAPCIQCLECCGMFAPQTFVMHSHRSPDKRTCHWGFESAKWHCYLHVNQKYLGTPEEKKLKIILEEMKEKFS

[1] = target: Strep II-tagged MH2 domain of SMAD3 (S423E, S425D), E145-D425; assay: SEC; gel filtration of the single proteins in buffer A (Superdex 200 for SMAD4 and SnoN constructs, Sephacryl 300 for SMAD3); oligomeric state from the retention volume
[2] = target: B2; assay: SPR; BIAcore 2000; SMAD4 (I314-Q549) amine-coupled on CM5 (about 1300 RU); SnoN SAND domain 0-500 nM injected; 10 mM HEPES pH 7.4, 150 mM NaCl, 0.005% TWEEN-20, 0.5 mM TCEP; room temperature; one-step binding model; conditions: both partners purified
[3] = target: B2; assay: crystal structure; SnoN SAND domain with SMAD4 MH2 domain, complex reconstituted 1:1; sitting drop, 2.8-3.3 M NaCl, 0.1 M Bis-Tris pH 5.5, 20 °C; 2.6 Å

## Strep II-tagged MH2 domain of SMAD3 (S423E, S425D), E145-D425 (domain or fragment)
SnoN (M1-S356), untagged
  stoichiometry N (SMAD3 per SnoN): 2.1
[1]
  stoichiometry N: 3

B1: SnoN SAND-domain (T238-S356) with C-terminal biotinylation sequence (domain or fragment, UniProt P12757-1 238-356, looked up)
chain: TFPQNGSVLPAKSSLAQLKETGSAFEVEHECLGKCQGLFAPQFYVQPDAPCIQCLECCGMFAPQTFVMHSHRSPDKRTCHWGFESAKWHCYLHVNQKYLGTPEEKKLKIILEEMKEKFS
notes: SnoN, SAND domain, residues T238-S356; Cloned in pNicBio3 for the SPR analysis; In the SPR it was the analyte, SMAD4 was amine-coupled; also called SnoN (T238-S356)
[2]
  Kd: 1100 nM
  koff: 0.129 s⁻¹
  kon: 120000 M⁻¹ s⁻¹

## B2
SnoN (M1-S356), untagged; both partners purified
  stoichiometry N: 1.2 SMAD4 per SnoN
[3]
  stoichiometry N: 3
